Reference: patent US20180030144A1 (INNATE PHARMA, published 2018)
Substitutions are numbered along the chain they refer to. Names and notes keep the numbering of the source.

T1: human CD73 expressed at the cell surface (human, UniProt P21589 27-549)
T1 construct: GPI-anchored dimer on cells; also called huCD73; cellular CD73
T1 sequence: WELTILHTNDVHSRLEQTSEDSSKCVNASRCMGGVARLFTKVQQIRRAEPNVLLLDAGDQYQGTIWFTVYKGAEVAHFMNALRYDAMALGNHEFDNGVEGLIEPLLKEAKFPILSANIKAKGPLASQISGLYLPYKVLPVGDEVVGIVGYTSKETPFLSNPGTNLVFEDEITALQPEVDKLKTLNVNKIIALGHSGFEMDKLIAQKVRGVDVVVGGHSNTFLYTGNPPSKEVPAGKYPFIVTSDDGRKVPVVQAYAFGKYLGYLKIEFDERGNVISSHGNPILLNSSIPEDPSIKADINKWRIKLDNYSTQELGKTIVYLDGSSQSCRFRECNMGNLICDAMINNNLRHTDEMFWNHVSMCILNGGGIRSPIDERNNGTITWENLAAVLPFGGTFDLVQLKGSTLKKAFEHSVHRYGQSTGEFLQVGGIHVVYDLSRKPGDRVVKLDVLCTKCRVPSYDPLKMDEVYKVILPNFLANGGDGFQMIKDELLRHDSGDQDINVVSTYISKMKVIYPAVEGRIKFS

T2: human CD73 mutant 3 (human, UniProt P21589 27-549)
T2 construct: Transfected in HEK293T cells
T2 chain: T1 sequence with A73S, E103A, K107A, E108N, A109S

T3: recombinant human CD73-His extracellular domain protein (soluble dimer) (human, UniProt P21589 27-547)
T3 sequence: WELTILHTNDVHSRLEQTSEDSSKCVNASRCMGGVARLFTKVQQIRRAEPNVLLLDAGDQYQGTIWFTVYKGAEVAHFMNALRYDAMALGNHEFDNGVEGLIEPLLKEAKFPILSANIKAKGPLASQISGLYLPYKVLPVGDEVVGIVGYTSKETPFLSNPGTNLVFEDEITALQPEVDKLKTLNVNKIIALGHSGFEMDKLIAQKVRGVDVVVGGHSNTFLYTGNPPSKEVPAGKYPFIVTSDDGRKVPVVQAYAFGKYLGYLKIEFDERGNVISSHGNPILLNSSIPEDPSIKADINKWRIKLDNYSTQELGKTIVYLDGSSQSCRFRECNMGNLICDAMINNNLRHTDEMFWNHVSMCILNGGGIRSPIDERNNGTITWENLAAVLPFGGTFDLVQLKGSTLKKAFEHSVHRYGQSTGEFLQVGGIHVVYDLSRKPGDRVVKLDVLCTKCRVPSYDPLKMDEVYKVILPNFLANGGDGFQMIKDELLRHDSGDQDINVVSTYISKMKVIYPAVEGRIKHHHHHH

T4: mouse CD73 expressed on a recombinant host cell line (mouse, UniProt Q61503 29-551)
T4 construct: whole, on cells; also called moCD73
T4 sequence (looked up): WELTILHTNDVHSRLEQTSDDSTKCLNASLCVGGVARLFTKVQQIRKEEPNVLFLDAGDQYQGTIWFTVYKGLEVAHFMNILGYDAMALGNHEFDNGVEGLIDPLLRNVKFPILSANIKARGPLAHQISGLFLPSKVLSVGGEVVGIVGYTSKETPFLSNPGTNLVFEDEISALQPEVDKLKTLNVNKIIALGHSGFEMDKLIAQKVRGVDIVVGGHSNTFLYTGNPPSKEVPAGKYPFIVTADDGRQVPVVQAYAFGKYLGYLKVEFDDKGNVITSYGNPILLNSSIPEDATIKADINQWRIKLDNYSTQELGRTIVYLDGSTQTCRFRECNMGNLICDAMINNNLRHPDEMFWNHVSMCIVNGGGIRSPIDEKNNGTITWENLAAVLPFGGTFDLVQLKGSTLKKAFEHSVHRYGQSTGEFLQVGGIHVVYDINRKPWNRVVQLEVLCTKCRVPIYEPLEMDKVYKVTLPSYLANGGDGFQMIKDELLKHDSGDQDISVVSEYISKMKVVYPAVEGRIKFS

B1: antibody AD2 (Biolegend, product ref. 344004) (antibody, V domains shown)
VH: EVQLQQSGAELVKPGASVKLSCTASGFNIKDTYIHWVKQRPEQGLEWIGRIDPATGNTEYDPKFQGKATITADTSSNTAYLHLSSLTSEDTAVYYCARGYYGSSYPPWFAYWGQGTLVTVS
VL: DIVMTQSHKFMSTSVGDRVSITCKASQDVGSAVAWYQQKPGQSPKLLIYWASTRHTGVPDRFTGSGSGTDFTLTISNVQSEDLADYFCQQYSSYPLTFGAGTKLELK
B2: antibody 8C7 (antibody, human IgG1, V domains shown)
VH: EVQLQQSGPELVKPGASVKVSCKASGYAFASYNMNWVKQSHGKSLDWIGYIDPYNGGSSYNLTFKGKATLTVDKSSTTAYMHLNSLTSEDSAVYYCARGYGNYKAWFAYWGQGTLVTVSA
VL: SIVMTPTPKFLLVSAGDRVTITCKASQSVSNDVAWYQQKPGQSPKLLIYYASTRYTGVPDRFTGSGYGTDFTFTISTVQAEDLAVYFCQQDYSSLTFGAGTKLELKR
notes: Produced as chimeric human IgG1 with heavy chain N297Q (Kabat EU numbering); RTVAAP)

Experiments:
[1] = target: T1, human CD73 expressed at the cell surface; assay: flow cytometry on MDA-MB-231 cells, medium (no APCP)
Description: (§1) MDA-MB-231 cells are available from ATCC (reference HTB-26). 10⁵ cells resuspended in PBS/0.2% BSA/0.02% NaN3 (named “staining buffer”) are distributed into round bottom 96W-microplates. Dose-range of anti-CD73 antibodies was added to the plates and cells are incubated for 45 min at 4° C. Cells were washed three times in staining buffer by spinning plates at 400 g for 3 min at 4° C. PE-coupled goat anti-mouse or goat anti-human IgG Fc fragment secondary antibodies (Beckman Coulter) diluted in staining buffer were added to the cells and plates are incubated for 30 additional minutes at 4° C. Cells were washed three times as described above and analyzed on an Accury C6 flow cytometer equipped with an HTFC plate reader.
(§2) Cells were pre-incubated at 37° C. for 30 minutes in the presence or not of 200 μM adenosine 5′-(α,β-methylene)diphosphate (APCP), followed by addition of antibodies. APCP is an analog of ADP and binds irreversibly to the active site of CD73. When bound by APCP, CD73 changes conformation from an “open” conformation to a “closed” conformation. mAbs 11E1, 8C7, 3C12 and 6E1 bound MDA-MB-231 cells with good affinity both in the presence and absence of APCP. In the presence of APCP, the EC50 was similar to that observed in the absence of APCP. The plateau for maximal binding of 11E1, 8C7, 3C12 and 6E1 was higher in the absence of APCP than in the presence of APCP, while the inverse was true for AD2.

[2] = target: T1, human CD73 expressed at the cell surface; assay: flow cytometry on MDA-MB-231 cells pre-incubated with 200 µM APCP
Description: as §1, §2

human CD73 mutant 3 = target: T2, human CD73 mutant 3; assay: flow cytometry titration on HEK293T cells transfected with human CD73 mutant 3, MFI PE
[3] = target: T1, human CD73 expressed at the cell surface; assay: flow cytometry titration on HEK293T cells transfected with wild type human CD73, MFI PE
[4] = target: T1, human CD73 expressed at the cell surface; assay: cell-based or functional assay
[5] = target: T3, recombinant human CD73-His …; assay: cell-based or functional assay
[6] = target: T1, human CD73 expressed at the cell surface; assay: cell-based or functional assay; remark: listed apart in the source
[7] = target: T1, human CD73 expressed at the cell surface; assay: cell-based or functional assay; remark: listed apart in the source
[8] = target: T3, recombinant human CD73-His …; assay: ELISA, plate-coated recombinant human CD73
Description: 5 μg/ml of recombinant human CD73 protein (IPH, isoform E6) was coated on MaxiSorp ELISA plates (Nunc) in PBS, overnight at 4° C. Plates were washed 5 times in washing buffer (PBS, 0.05% Tween20) and unspecific sites were saturated by adding 200 μl/w TBS starting block buffer (Thermo Ficher). Dose-range of anti-CD73 antibodies were incubated for 2 h at 37° C. Plates were washed 5 times in washing buffer and HRP-coupled goat anti-human or goat anti-mouse IgG Fc fragment secondary antibody (Bethyl, 1/50000) was added for 1 hr at RT to detect bound anti-CD73 antibodies. […] The enzymatic reaction was stopped by adding HCl 1M and O.D. was measured at 450 nm. Optical density vs. anti-CD73 Ab concentration was plotted on graphs and EC50 is calculated using GraphPad Prism software.

[9] = target: T1, human CD73 expressed at the cell surface; assay: flow cytometry titration on MDA-MB-231 cells (endogenous CD73), median of fluorescence
Description: as §1
Median of fluorescence vs. antibodies concentration was plotted on graphs and EC50 is calculated using Graph Pad Prism program.

[10] = target: T1, human CD73 expressed at the cell surface; assay: flow cytometry titration on a human-CD73-expressing recombinant host cell line, median of fluorescence
[11] = target: T4, mouse CD73 expressed on a recombinant …; assay: flow cytometry titration on a mouse-CD73-expressing recombinant host cell line, median of fluorescence
[12] = target: T5, cynomolgus CD73 expressed on a recombinant host cell line (cynomolgus); assay: flow cytometry titration on a cynomolgus-CD73-expressing recombinant host cell line, median of fluorescence
T5 construct: whole, on cells; also called cynoCD73

| Binder | EC50 [1] [µg/mL] | EC50 [2] [µg/mL] | EC50 (read off the curve) (human CD73 mutant 3) [µg/mL] | EC50 (read off the curve) [3] [µg/mL] | decrease of the enzymatic activity of cellular CD73 (MDA-MB-231 cells) [4] [%] | EC50 for CD73 blockade (enzymatic activity of soluble recombinant human CD73-his) [5] [µg/mL] | EC50 for neutralization of the enzymatic activity of cellular CD73 (MDA-MB-231 cells, free phosphate from AMP) [6] [µg/mL] | EC50 for neutralization of 5'-ectonucleotidase activity, mean over MDA-MB-231, H292 and A375 cells [7] [µg/mL] | EC70 for neutralization of 5'-ectonucleotidase activity, mean over MDA-MB-231, H292 and A375 cells [7] [µg/mL] | EC100 for neutralization of 5'-ectonucleotidase activity, mean over MDA-MB-231, H292 and A375 cells [7] [µg/mL] | EC50 [8] [µg/mL] | EC50 (read off the curve) [9] [µg/mL] | EC50 (read off the curve) [10] [µg/mL] | binding result [11] | EC50 (read off the curve) [12] [µg/mL] |
| --- | --- | --- | --- | --- | --- | --- | --- | --- | --- | --- | --- | --- | --- | --- | --- |
| B1 | 0.0629 | 0.0959 | ~0.1 | ~0.2 | – | – | – | – | – | – | – | – | – | – | – |
| B2 | 0.0903 | 0.143 | – | – | > 75 | 1.29 | 0.319 | 0.21 | 0.46 | 0.72 | 0.009 | ~0.1 | ~0.1 | no binding (tested: about 30 µg/ml) | ~0.4 |
